This is an account of results in publication PMC9167820, “An experimental study of the effects of SNPs in the TATA boxes of the GRIN1, ASCL3 and NOS1 genes on interactions with the TATA-binding protein”.

The labels stand for the following.
B1: GRIN1 WT (dsDNA)
DNA 1: TGGAGGGGGACAAAGACAGGGTGGTG
DNA 2: CACCACCCTGTCTTTGTCCCCCTCCA
B2: GRIN1 -34G>A (rs1402667001) (dsDNA)
DNA 1: TGGAGGAGGACAAAGACAGGGTGGTG
DNA 2: CACCACCCTGTCTTTGTCCTCCTCCA
B3: NOS1 WT (dsDNA)
DNA 1: TGTTTCCTGATAGAAAAAAAAAATGG
DNA 2: CCATTTTTTTTTTCTATCAGGAAACA
B4: NOS1 -27G>A (rs1195040887) (dsDNA)
DNA 1: TGTTTCCTGATAAAAAAAAAAAATGG
DNA 2: CCATTTTTTTTTTTTATCAGGAAACA
B5: ASCL3 WT (dsDNA)
DNA 1: TCGAAAAATAAAATAAAATAAAACAT
DNA 2: ATGTTTTATTTTATTTTATTTTTCGA

Sequence of TATA-binding protein (TBP) (Homo sapiens) (P20226 whole entry): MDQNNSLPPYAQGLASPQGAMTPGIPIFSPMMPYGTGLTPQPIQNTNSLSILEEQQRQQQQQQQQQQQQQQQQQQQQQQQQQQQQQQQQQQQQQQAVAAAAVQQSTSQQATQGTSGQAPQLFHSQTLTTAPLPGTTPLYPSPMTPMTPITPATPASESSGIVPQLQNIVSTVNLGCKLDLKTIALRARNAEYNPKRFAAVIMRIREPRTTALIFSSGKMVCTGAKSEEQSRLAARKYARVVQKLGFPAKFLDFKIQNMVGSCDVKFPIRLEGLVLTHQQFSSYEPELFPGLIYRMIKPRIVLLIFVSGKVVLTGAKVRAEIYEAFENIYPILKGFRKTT

The first data set addresses TATA-binding protein (TBP) (Homo sapiens) (UniProt P20226). As to the kind of experiment: EMSA (kinetic, kd/ka). Conditions: 20 mM HEPES-KOH pH 7.6, 5 mM MgCl2, 70 mM KCl, 1 mM DTT, 100 ug/ml BSA, 0.01% NP-40, 5% 'XYZ' (so in the source), 25 C; TBP 0.4 nM; gel 5% PAGE Tris-glycine pH 8.3 ….
Usually Kd stands for the constant that tells how readily two partners part at equilibrium. Regarding “TCGAAAAATAAAACAAAATAAAACAT (double strand) [ASCL3 -45T>C (rs1049743008)]”, the Kd came out at 17 nM.

In the next data set the target is TATA-binding protein (TBP) (Homo sapiens, UniProt P20226 1-339). The experiment in a line: EMSA (kinetic, kd/ka); 20 mM HEPES-KOH pH 7.6, 5 mM MgCl2, 70 mM KCl, 1 mM DTT, 100 ug/ml BSA, 0.01% NP-40, 5% 'XYZ' (so in the source), 25 C; TBP 0.4 nM; gel 5% PAGE Tris-glycine pH 8.3, 10 C. The conditions noted are these: protein: recombinant; label: 32P; blunt. (A gel shift assay detects complexes by their altered migration in electrophoresis.)
Sequence of TATA-binding protein (TBP) (P20226 whole entry): as the sequence (P20226 whole entry) above
Take B1: the Kd worked out at 320 ± 50 nM.

As to B2, the Kd amounted to 200 ± 50 nM.

On to B3, for which the Kd amounted to 70 ± 20 nM.

For B4, the Kd amounted to 59 ± 9 nM.

On to B5, for which the equilibrium dissociation constant (Kd) came to 12 ± 5 nM.
